Experimental data reported in article PMC3500527 (Cancer cell, 2012).

Legend:
[1] = target: T1, profilin-2 (immunoprecipitated from cell lysates; mass spectrometry) (UniProt P35080 1-140); experiment: co-IP
T1 sequence (looked up): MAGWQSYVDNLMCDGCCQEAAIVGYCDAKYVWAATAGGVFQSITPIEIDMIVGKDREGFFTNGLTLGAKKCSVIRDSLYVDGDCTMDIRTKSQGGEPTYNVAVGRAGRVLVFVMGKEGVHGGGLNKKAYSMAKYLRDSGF

Cy3-hVASP1-240aa = Cy3-hVASP1-240aa (human, UniProt P50552 1-240, Cy3 fluorophore (site not stated)); experiment: AUC
Cy3-mEVL1-235aa = Cy3-mEVL1-235aa (mouse (from the label mEVL), UniProt P70429 1-235, Cy3 fluorophore (site not stated)); experiment: AUC
HA-EVL = target: T2, HA-EVL (UniProt Q9UI08 1-416); experiment: co-IP
T2 sequence (looked up): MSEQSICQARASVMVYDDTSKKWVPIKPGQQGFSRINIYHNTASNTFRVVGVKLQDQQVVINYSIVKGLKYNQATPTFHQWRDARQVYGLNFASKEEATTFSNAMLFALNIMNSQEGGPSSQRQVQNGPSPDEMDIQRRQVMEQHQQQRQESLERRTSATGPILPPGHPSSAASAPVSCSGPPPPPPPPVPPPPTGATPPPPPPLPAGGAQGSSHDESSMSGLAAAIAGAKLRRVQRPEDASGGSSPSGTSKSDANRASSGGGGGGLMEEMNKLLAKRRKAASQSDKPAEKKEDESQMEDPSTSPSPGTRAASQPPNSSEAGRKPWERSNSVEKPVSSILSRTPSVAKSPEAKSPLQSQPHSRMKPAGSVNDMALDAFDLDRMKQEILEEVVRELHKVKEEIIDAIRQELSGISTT

B1: VASP (immunoprecipitated with profilins) (natural protein, UniProt P50552 1-380, looked up)
chain: MSETVICSSRATVMLYDDGNKRWLPAGTGPQAFSRVQIYHNPTANSFRVVGRKMQPDQQVVINCAIVRGVKYNQATPNFHQWRDARQVWGLNFGSKEDAAQFAAGMASALEALEGGGPPPPPALPTWSVPNGPSPEEVEQQKRQQPGPSEHIERRVSNAGGPPAPPAGGPPPPPGPPPPPGPPPPPGLPPSGVPAAAHGAGGGPPPAPPLPAAQGPGGGGAGAPGLAAAIAGAKLRKVSKQEEASGGPTAPKAESGRSGGGGLMEEMNAMLARRRKATQVGEKTPKDESANQEEPEARVPAQSESVRRPWEKNSTTLPRMKSSSSVTTSETQPCTPSSSDYSDLQRVKQELLEEVKKELQKVKEEIIEAFVQELRKRGSP
- fold immunoprecipitated relative to profilin-1 [1]: 1.8 fold

B2: EVL (immunoprecipitated with profilins; mass spectrometry) (natural protein, UniProt Q9UI08 1-416, looked up)
chain: MSEQSICQARASVMVYDDTSKKWVPIKPGQQGFSRINIYHNTASNTFRVVGVKLQDQQVVINYSIVKGLKYNQATPTFHQWRDARQVYGLNFASKEEATTFSNAMLFALNIMNSQEGGPSSQRQVQNGPSPDEMDIQRRQVMEQHQQQRQESLERRTSATGPILPPGHPSSAASAPVSCSGPPPPPPPPVPPPPTGATPPPPPPLPAGGAQGSSHDESSMSGLAAAIAGAKLRRVQRPEDASGGSSPSGTSKSDANRASSGGGGGGLMEEMNKLLAKRRKAASQSDKPAEKKEDESQMEDPSTSPSPGTRAASQPPNSSEAGRKPWERSNSVEKPVSSILSRTPSVAKSPEAKSPLQSQPHSRMKPAGSVNDMALDAFDLDRMKQEILEEVVRELHKVKEEIIDAIRQELSGISTT
- fold immunoprecipitated relative to profilin-1 [1]: 7 fold

B3: mouse profilin-2a (natural protein, UniProt Q9JJV2 1-140, looked up)
chain: MAGWQSYVDNLMCDGCCQEAAIVGYCDAKYVWAATAGGVFQSITPVEIDMIVGKDREGFFTNGLTLGAKKCSVIRDSLYVDGDCTMDIRTKSQGGEPTYNVAVGRAGRVLVFVMGKEGVHGGGLNKKAYSMAKYLRDSGF
- binding result (Cy3-hVASP1-240aa): binds
- binding result (Cy3-mEVL1-235aa): binds

B4: profilin-2 (natural protein, human (endogenous in SUM159), UniProt P35080 1-140, looked up)
chain: MAGWQSYVDNLMCDGCCQEAAIVGYCDAKYVWAATAGGVFQSITPIEIDMIVGKDREGFFTNGLTLGAKKCSVIRDSLYVDGDCTMDIRTKSQGGEPTYNVAVGRAGRVLVFVMGKEGVHGGGLNKKAYSMAKYLRDSGF
- fold immunoprecipitated relative to profilin-1 (HA-EVL): 10 fold
